According to paper PMC7900238, “A meet-up of two second messengers: the c-di-AMP receptor DarB controls (p)ppGpp synthesis in Bacillus subtilis” (Nature Communications, 2021):

Tests used:
Rel = target: T1, Rel (Bacillus subtilis, UniProt O54408); assay: hydrolase assay, GTP formation by LC-MS/MS; assay type: biochemical; conditions: 1 mM pppGpp, 1 mM MnCl2, 5 mM Mg(OAc)2, HEPES:Polymix pH 7.5, 37 °C; without DarB
T1 construct: gene relA; full-length (734 residues), 10xHis-SUMO fusion from plasmid pVHP186 in E. coli Rosetta(DE3), SUMO tag cleaved, RNA-free

DarB = DarB (Bacillus subtilis, UniProt O31698); assay: biochemical
[1] = target: the molecule itself; assay: SEC-MALS; Rel^NTD and DarB alone or pre-mixed 1:1 (~1 mg/ml each) in 1× ZAP buffer (50 mM Tris-HCl, 200 mM NaCl, pH 7.5), Superdex 200 10/300GL; fractions on SDS-PAGE
[2] = target: Rel, full length, purified, SUMO tag removed (B. subtilis, UniProt O54408 1-734); assay: cell-based or functional assay
[3] = target: T2, Rel^NTD, purified, as used in SEC-MALS and ITC (B. subtilis 168, UniProt O54408 1-391); assay: ITC; 10 µM Rel^NTD in the cell, 100 µM DarB in the syringe, 50 mM Tris-HCl pH 8.3, 200 mM NaCl, 20 °C; conditions: both partners purified
T2 construct: Rel, Bacillus subtilis 168, aa 1-391 (HYD and SYN domains); the only expression plasmid named is pGP3350 (Strep-tagged); The SEC-MALS methods speak of 'purified tag-free proteins', but no removal of the Strep tag from Rel^NTD is described; Monomer by SEC-MALS; source: E. coli Rosetta(DE3), purified (StrepTactin)
T2 sequence (O54408 1-391): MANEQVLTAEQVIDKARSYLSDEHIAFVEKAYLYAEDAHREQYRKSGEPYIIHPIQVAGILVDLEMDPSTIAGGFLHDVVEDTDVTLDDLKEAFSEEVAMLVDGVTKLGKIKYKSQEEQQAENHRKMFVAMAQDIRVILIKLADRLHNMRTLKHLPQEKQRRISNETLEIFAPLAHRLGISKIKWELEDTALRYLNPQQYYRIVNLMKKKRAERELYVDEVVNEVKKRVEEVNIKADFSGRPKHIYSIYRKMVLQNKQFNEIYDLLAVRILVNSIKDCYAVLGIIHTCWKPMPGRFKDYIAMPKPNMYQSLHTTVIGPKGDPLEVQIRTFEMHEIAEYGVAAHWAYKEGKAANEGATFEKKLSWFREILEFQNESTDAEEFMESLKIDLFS

Sequence of Rel, full length, purified, SUMO tag removed (O54408 whole entry): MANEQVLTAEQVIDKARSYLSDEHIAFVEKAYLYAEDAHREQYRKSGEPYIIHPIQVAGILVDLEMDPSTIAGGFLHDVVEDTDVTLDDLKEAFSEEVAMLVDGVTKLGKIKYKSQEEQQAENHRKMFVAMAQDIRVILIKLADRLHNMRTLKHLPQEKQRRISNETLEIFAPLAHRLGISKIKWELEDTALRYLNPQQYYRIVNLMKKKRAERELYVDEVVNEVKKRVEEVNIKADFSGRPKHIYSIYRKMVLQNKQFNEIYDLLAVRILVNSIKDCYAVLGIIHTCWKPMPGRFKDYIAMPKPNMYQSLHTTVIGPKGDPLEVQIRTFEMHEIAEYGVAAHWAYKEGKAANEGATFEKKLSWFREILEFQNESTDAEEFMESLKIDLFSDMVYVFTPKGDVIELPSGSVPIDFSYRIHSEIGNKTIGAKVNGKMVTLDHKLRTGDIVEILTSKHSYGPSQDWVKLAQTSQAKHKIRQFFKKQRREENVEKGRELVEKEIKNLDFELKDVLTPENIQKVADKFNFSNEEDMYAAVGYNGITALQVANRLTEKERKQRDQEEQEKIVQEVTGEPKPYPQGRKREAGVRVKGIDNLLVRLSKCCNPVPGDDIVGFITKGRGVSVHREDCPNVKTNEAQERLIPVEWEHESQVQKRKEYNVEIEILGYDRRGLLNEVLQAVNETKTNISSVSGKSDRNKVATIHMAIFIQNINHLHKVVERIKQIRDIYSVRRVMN
Sequence of DarB (O31698 whole entry): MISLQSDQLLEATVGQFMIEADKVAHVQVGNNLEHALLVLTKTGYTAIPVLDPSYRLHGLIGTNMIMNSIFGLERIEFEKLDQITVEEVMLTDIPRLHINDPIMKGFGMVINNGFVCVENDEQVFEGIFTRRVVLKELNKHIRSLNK
T1 sequence (O54408 whole entry, the tested form may be a part): as the sequence (O54408 whole entry) above

Nc1nc2c(ncn2[C@@H]2O[C@H](COP(=O)(O)OP(=O)(O)OP(=O)(O)O)[C@@H](OP(=O)(O)OP(=O)(O)O)[C@H]2O)c(=O)[nH]1 [pppGpp]
hydrolase assay, GTP formation by LC-MS/MS (Rel): we determined the formation of GTP resulting from the hydrolysis of pppGpp

Nc1ncnc2c1ncn2[C@@H]1O[C@@H]2COP(=O)(O)O[C@H]3[C@@H](O)[C@H](n4cnc5c(N)ncnc54)O[C@@H]3COP(=O)(O)O[C@H]2[C@H]1O [c-di-AMP]
Kd (DarB): ~45 nM

B1: DarB, purified, SUMO tag removed (natural protein, B. subtilis 168)
chain: ISLQSDQLLEATVGQFMIEADKVAHVQVGNNLEHALLVLTKTGYTAIPVLDPSYRLHGLIGTNMIMNSIFGLERIEFEKLDQITVEEVMLTDIPRLHINDPIMKGFGMVINNGFVCVENDEQVFEGIFTRRVVLKELNKHIRSLNK
notes: darB amplified from chromosomal DNA and cloned into pET-SUMO (pGP2972); Dimer by SEC-MALS; Apo form as made in E. coli; in some experiments preincubated or saturated with c-di-AMP (written as a condition of the assay); also called apo-DarB; c-di-AMP receptor DarB; source: E. coli Rosetta(DE3), purified (Ni-NTA; SUMO tag removed with SUMO protease)
stoichiometry N [1]: 2 | pppGpp hydrolase activity of purified Rel (0.5 µM) with DarB (5 µM), against Rel alone (8.7 pmol of GTP per pmol of Rel per minute) [2]: 6 fold | pppGpp synthetase activity of purified Rel (0.5 µM) with DarB (5 µM), against Rel alone (1.1 pmol pppGpp per pmol of Rel per minute) [2]: 3 fold | Kd [3]: 650 nM | stoichiometry N [3]: 1
